Source: PMC3158066, “An Inserted α/β Subdomain Shapes the Catalytic Pocket of Lactobacillus johnsonii Cinnamoyl Esterase” (PLoS ONE, 2011)
Where a chain is given by its changes, count along the chain named. Names may count otherwise.

B1: LJ0536 (cinnamoyl esterase) (Lactobacillus johnsonii; H225A) (protein)
chain: MATITLERDGLQLVGTREEPFGEIYDMAIIFHGFTANRNTSLLREIANSLRDENIASVRFDFNGHGDSDGKFENMTVLNEIEDANAILNYVKTDPHVRNIYLVGHSQGGVVASMLAGLYPDLIKKVVLLAPAATLKGDALEGNTQGVTYNPDHIPDRLPFKDLTLGGFYLRIAQQLPIYEVSAQFTKPVCLIHGTDDTVVSPNASKKYDQIYQNSTLHLIEGADACFSDSYQKNAVNLTTDFLQNNNAF
notes: full length in p15TV-L, E. coli BL21(DE3); His6-tag removed by TEV for kinetics; crystals: tag uncleaved, protease-treated (subtilisin or V8), residues 1-245 modelled, four C-terminal residues lost
B2: LJ0536 (cinnamoyl esterase) (Lactobacillus johnsonii; Q145A) (protein)
chain: B1 chain with Q145A, A225H
notes: as for B1
B3: LJ0536 (cinnamoyl esterase) (Lactobacillus johnsonii; H32A) (protein)
chain: B1 chain with H32A, A225H
notes: as for B1
B4: LJ0536 Ser106Ala mutant, as crystallised after treatment with V8 protease (enzyme, Lactobacillus johnsonii N6.2)
chain: B1 chain with S106A, A225H
notes: made from the p15TV-L wild-type clone; also called LJ0536 S106A; S106A; not shown: His6, N-terminal, kept
B5: LJ0536, cinnamoyl esterase of Lactobacillus johnsonii N6.2 (wild type) (enzyme, UniProt D3YEX6 1-249, looked up)
chain: B1 chain with A225H
notes: LJ0536, serine cinnamoyl esterase, Lactobacillus johnsonii N6.2; the crystallised fragment 1-245 is said to lack four C-terminal residues of the full-length protein; The protein as used for gel filtration; also called WT
B6: LJ0536 (cinnamoyl esterase) (Lactobacillus johnsonii; D138A) (protein)
chain: B1 chain with D138A, A225H
notes: as for B1
B7: LJ0536 (cinnamoyl esterase) (Lactobacillus johnsonii; S68A) (protein)
chain: B1 chain with S68A, A225H
notes: as for B1
B8: LJ0536 (cinnamoyl esterase) (Lactobacillus johnsonii; DEL147-173) (protein)
chain: MATITLERDGLQLVGTREEPFGEIYDMAIIFHGFTANRNTSLLREIANSLRDENIASVRFDFNGHGDSDGKFENMTVLNEIEDANAILNYVKTDPHVRNIYLVGHSQGGVVASMLAGLYPDLIKKVVLLAPAATLKGDALEGNTQGQQLPIYEVSAQFTKPVCLIHGTDDTVVSPNASKKYDQIYQNSTLHLIEGADHCFSDSYQKNAVNLTTDFLQNNNAF
notes: as for B1
B9: apo-LJ0536 (wild type), as crystallised after treatment with subtilisin (enzyme, Lactobacillus johnsonii N6.2, UniProt D3YEX6 1-245, looked up)
chain: MATITLERDGLQLVGTREEPFGEIYDMAIIFHGFTANRNTSLLREIANSLRDENIASVRFDFNGHGDSDGKFENMTVLNEIEDANAILNYVKTDPHVRNIYLVGHSQGGVVASMLAGLYPDLIKKVVLLAPAATLKGDALEGNTQGVTYNPDHIPDRLPFKDLTLGGFYLRIAQQLPIYEVSAQFTKPVCLIHGTDDTVVSPNASKKYDQIYQNSTLHLIEGADHCFSDSYQKNAVNLTTDFLQN
notes: LJ0536, serine cinnamoyl esterase, Lactobacillus johnsonii N6.2; residues 1-245 seen in the map, four C-terminal residues lost to the protease, plus five residues of the expression tag; Crystallised with the His6 tag uncleaved, but only five residues of the expression tag are seen after the protease treatment; also called apo WT LJ0536; not shown: His6, N-terminal, kept

Legend:
[1] = molecular target: T1, LJ0536 (cinnamoyl esterase) (Lactobacillus johnsonii, UniProt D3YEX6, S106A); assay: X-ray crystallography, co-crystal; assay type: binding; conditions: 0.1 M Tris pH 8.5, active site
T1 construct: gene FEE39_08260; full length in p15TV-L, E. coli BL21(DE3); His6-tag removed by TEV for kinetics; crystals: tag uncleaved, protease-treated (subtilisin or V8), residues 1-245 modelled, four C-terminal residues lost

[2] = substrate: CCCC(=O)Oc1ccc([N+](=O)[O-])cc1; assay: purified protein; assay type: biochemical, Lactobacillus johnsonii; conditions: HEPES pH 7.80, 25 °C (typical assay; saturation conditions as in ref 14), pH 7.8
[3] = molecular target: the molecule itself; assay: crystal structure; sitting drop, protein at 15 mg/mL with His6-tag uncleaved, pre-treated with subtilisin (apo) or V8 protease (S106A); S106A co-crystallised with ethyl ferulate
[4] = molecular target: the molecule itself; assay: SEC; gel filtration on Superose 12 10/300GL (FPLC), mobile phase 10 mM HEPES with 150 mM NaCl, calibrated with molecular weight standards
[5] = deletion made by ligation at a SmaI junction

T1 sequence (D3YEX6 entry or part of it S106A): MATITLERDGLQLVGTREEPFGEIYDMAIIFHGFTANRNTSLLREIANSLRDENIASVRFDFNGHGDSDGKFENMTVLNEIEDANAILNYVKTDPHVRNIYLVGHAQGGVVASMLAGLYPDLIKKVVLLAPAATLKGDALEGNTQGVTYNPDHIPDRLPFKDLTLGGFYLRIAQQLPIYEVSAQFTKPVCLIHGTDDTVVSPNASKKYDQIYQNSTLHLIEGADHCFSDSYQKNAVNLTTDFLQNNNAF

Row | Molecule | Km [2] | Vmax [2] | kcat [2] | kcat/Km [2] | other results
1 | COc1cc(/C=C/C(=O)O)ccc1O [ferulic acid] | – | – | – | – | X-ray crystallography, co-crystal ([1]; 5 mM ligand, 1.75 Å): co-crystallized this mutant with ferulic acid, ethyl ferulate, or chlorogenic acid
2 | CCOC(=O)/C=C/c1ccc(O)c(OC)c1 [ethyl ferulate] | – | – | – | – | X-ray crystallography, co-crystal ([1]; Form I (5 mM ligand, 1.58 Å, 3PFB) and Form II (25 mM ligand, 1.82 Å, 3QM1)): The Ser106Ala-ethyl ferulate complex crystallized in two forms
3 | B1 | 190 ± 40 µM | 0.65 µmol/min/mg | 0.3 s⁻¹ | 1570 M⁻¹ s⁻¹ | –
4 | B2 | 290 ± 40 µM | 2.05 µmol/min/mg | 0.94 s⁻¹ | 3250 M⁻¹ s⁻¹ | –
5 | B3 | 130 ± 80 µM | 0.09 µmol/min/mg | 0.04 s⁻¹ | 318 M⁻¹ s⁻¹ | –
6 | B4 | – | – | – | – | binding result [3]: binds
7 | B5 | 160 ± 20 µM | 3.34 µmol/min/mg | 1.53 s⁻¹ | 9590 M⁻¹ s⁻¹ | binding result [4]: binds
8 | B6 | 220 ± 30 µM | 1.23 µmol/min/mg | 0.57 s⁻¹ | 2570 M⁻¹ s⁻¹ | –
9 | B7 | 80 ± 20 µM | 0.47 µmol/min/mg | 0.22 s⁻¹ | – | –
10 | B8 | – | – | – | – | Km [2, 5]: 650 ± 120 µM; Vmax [2, 5]: 0.28 µmol/min/mg; kcat [2, 5]: 0.13 s⁻¹; kcat/Km [2, 5]: 198 M⁻¹ s⁻¹
11 | B9 | – | – | – | – | binding result [3]: binds
